# Experimental data: patent US20190185574A1 (COMMISSARIAT L NERGIE ATOMIQUE ET AUX NERGIES ALTERNATIVES, published 2019)
# T1: human endothelin receptor sub-type B (human, UniProt P24530 27-442)
# T1 construct: no signal peptide limits are stated; also called ETB-R; ETBR
# T1 sequence: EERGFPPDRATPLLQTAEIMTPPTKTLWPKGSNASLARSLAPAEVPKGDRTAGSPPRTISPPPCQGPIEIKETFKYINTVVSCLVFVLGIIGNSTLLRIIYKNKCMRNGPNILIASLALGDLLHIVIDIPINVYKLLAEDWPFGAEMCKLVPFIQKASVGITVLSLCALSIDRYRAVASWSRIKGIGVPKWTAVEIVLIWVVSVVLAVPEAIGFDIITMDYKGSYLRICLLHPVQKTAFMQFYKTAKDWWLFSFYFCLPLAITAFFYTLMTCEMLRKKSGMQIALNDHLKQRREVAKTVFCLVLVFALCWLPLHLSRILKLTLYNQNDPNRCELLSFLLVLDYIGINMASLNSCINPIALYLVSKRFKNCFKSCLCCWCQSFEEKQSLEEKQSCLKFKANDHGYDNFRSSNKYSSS
# T2: peptide C7 of the ETB-R Pep-scan membrane (human)
# T2 construct: Residues are inferred as for C5, from the one-residue offset and C11 = 71-82
# T2 peptide: APAEVPKGDRTA
# T3: peptide C5 of the ETB-R Pep-scan membrane (human)
# T3 construct: The peptides are 12-mers offset by one residue, C11 is stated to be 71-82, and C5-C10 share 70-76
# T3 peptide: SLAPAEVPKGDR
# T4: peptide C8 of the ETB-R Pep-scan membrane (human)
# T4 construct: Residues are inferred as for C5, from the one-residue offset and C11 = 71-82
# T4 peptide: PAEVPKGDRTAG
# T5: peptide C6 of the ETB-R Pep-scan membrane (human)
# T5 construct: Residues are inferred as for C5, from the one-residue offset and C11 = 71-82
# T5 peptide: LAPAEVPKGDRT
# T6: peptide C10 of the ETB-R Pep-scan membrane (human)
# T6 construct: Residues are inferred as for C5, from the one-residue offset and C11 = 71-82
# T6 peptide: EVPKGDRTAGSP
# T7: peptide C9 of the ETB-R Pep-scan membrane (human)
# T7 construct: Residues are inferred as for C5, from the one-residue offset and C11 = 71-82
# T7 peptide: AEVPKGDRTAGS
# Assays:
# [1] = molecular target: T1, human endothelin receptor sub-type B; assay: flow cytometry on CHO-ETBR cells; apparent KD = concentration giving 50% of plateau MFI
# [2] = molecular target: T1, human endothelin receptor sub-type B; assay: flow cytometry on CHO-ETBR cells pre-incubated 2 h at 37° C. with 300 nM endothelin 1 (receptor internalised)
# [3] = molecular target: T2, peptide C7 of the ETB-R Pep-scan …; assay: Pep-scan peptide membrane, 1 µg/ml antibody, chemiluminescent detection
# [4] = molecular target: T3, peptide C5 of the ETB-R Pep-scan …; assay: as above
# [5] = molecular target: T4, peptide C8 of the ETB-R Pep-scan …; assay: as above
# [6] = molecular target: T5, peptide C6 of the ETB-R Pep-scan …; assay: as above
# [7] = molecular target: T6, peptide C10 of the ETB-R Pep-scan …; assay: as above
# [8] = molecular target: T7, peptide C9 of the ETB-R Pep-scan …; assay: as above
Binder,Kd [1],drop of binding after pre-incubation of the cells with 300 nM endothelin 1 [2],binding result [3],binding result [4],binding result [5],binding result [6],binding result [7],binding result [8]
"Rendomab-B41 (antibody, IgG1, V domains shown, Murine monoclonal IgG1/kappa purified from ascites; also called hybridoma CNCM I-5104) VH: QVQLQQPGAELVKPGASVKLSCKASGYTFTSYWMHWVKQRPGRGLEWIGRIDPDSGGTKYNEKFKSKATLTVDKPSNTANMQLSSLTSEDSAVYYCVREGWDAWFVYWGQGTLLTVSA VL: DVLMTQTPLSLPVSLGDQASISCRSSQSIVHSNGNTYLEWYLQKPGQSPKLLIYKVFNRFSGVPDRFSGSGSGTDFTLKISRVEAEDLGVYYCFQGSHVPLTFGAGTKLELKR",~1 nM,> 50%,,,,,,
"Rendomab-B36 (antibody, IgG3, V domains shown, Murine monoclonal IgG3/kappa purified from ascites; also called hybridoma CNCM I-5103) VH: QVQLQQPGAELVKPGASVKLSCKASGYTFTSYWIHWVNQRPGRGLEWIGRIDPNSGGTKYNEKFKSKATLTVDKTSSTAYMQFSSLTSEDSAVYYCAREGEFAWFAYWGQGTLVTVSA VL: DVLMTQTPLSLPVSLGDQASISCRSSQNIVHSNGYTYLEWYLQKPGQSPKLLIYKVSNRFSGVPDRFSGSGSGTDFTLKISRVEAEDLGVYYCFQGSHVPLTFGSGTKLEIKR",~1 nM,> 50%,,,,,,
"Rendomab-B49 (antibody, IgG1, V domains shown, Murine monoclonal IgG1/kappa purified from ascites; also called hybridoma CNCM I-5084) VH: QVQLQQPGAALVKPGASVKLSCKASGYTFISYWMLWVKQRPGRGLEWIGRIDPDSGGTKYNEKFKSKATLTVDKSSSTAYMQLSSLTSEDSAVYYCAREGDYAWFAYWGQGTLVPVSA VL: DVLMTQTPLSLPVSLGDQASISCRSSQSIVHSNGNTYLEWYLQKPGQSPKLLIYKVSNRFSGVPDRFSGSGSGTDFTLKISRVEAEDLGVYYCFQGSHVPWTFGGGTKLEIK",,,binds,binds,binds,binds,binds,binds
